Results: the RNAGym collection of RNA variant scans (doi:10.1073/pnas.2313332121)

B1: TPR t1 (parent)
chain: GACCAAUCUGCCCUCAGAGCUCGAGAACAUCUUCGGAUGCAGAGGAGGCAGGCUUCGGUGGCGCGAUAGCGCCAACGUCCUCAACCUCCAAUGCAUCCCACCACAUGAUGAUGCCUGAAGAGCCUUGGUUUUUUG

Variants of: B1
Experiment: polymerase ribozyme fitness, log enrichment relative to wild type (log ratio); higher = more active; in vitro selection for triplet polymerase activity
Method in brief: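 In triplicate, a single round of in vitro selection was run on each mutant library, PCR-built and transcribed, covering one subunit of a heterodimeric triplet polymerase ribozyme. Frozen incubation at −7 °C followed annealing with a biotinylated primer, partner subunit and triplets, and extended constructs were then gel-excised, streptavidin-captured and taken through RT-PCR. Fitness is the logarithm of genotype enrichment over wild-type enrichment, from inverse-variance-weighted replicate averages of Illumina-sequenced inputs and outputs. […] only genotypes with ≥10 input reads and ≥1 read per output were kept.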

Variant	polymerase ribozyme fitness (log ratio)
G47A G71U C104A	-2.85
G47U A66C C115U U130A G135A	-5.53
G47A U96A	-1.93
G47A G110C	-4.91
G47A C62A C70A	-4.43
G47A C72U A83U	-1.18
G47A C82G	-1.3
G47A U112G G117A	-3.86
G47A C62A G120A U126A	-3.07
G47A G113C G122A	-4.01
G47C G63U A90U	-5.15
G47C U78A	-1.42
G47A C56U U78A C124A U131A	1.41
G47C U55G C88U	-1.25
G47C G113C G127C	-3.94
G47A G58C G71U C79U U130C	-0.309
G47C C98U C124G	-0.238
G47C G60C U109A U112G	-7.01
G47C G48U	-2.71
G47A G60A C124G	0.279
G47C C94U	-1.71

Variant	polymerase ribozyme fitness (log ratio)
G47C A90G	-1.06
G47C G120C G122A G128U	-3.66
G47A C49A G60C G128C	-4.7
G47C C86G C124A	1
G47C G61U U130A	-2.36
G47C G93U	-3.69
G47A C72U A121C U129A	0.0942
G47C C86A	-0.437
G47C A111C A118C	-2.36
G47C U126A	-4.53
G47A G48C G52U C62G C79U	-5.83
G47A G57U G69U G117A U133G	-1.83
G47C C70A U131G	-4.27
G47A A50U C73U C124U U132A	-0.0565
G47A C82U C86G	-0.151
G47C G69U A90C C104U	-1.9
G47A G51A U130A	-4.79
G47C C70A	-5.04
G47C C104U	-1.08
G47C A90U G128C	-5.03
G47A G58A G60A C79U	-2.31

Variant	polymerase ribozyme fitness (log ratio)
G47A C86A	-0.754
G47C G63U C102A U112C G113U	-7.27
G47A G120A	-0.422
G47A C94G C101U	-2.16
G47A C62U	-1.85
G47A C62A	-1.78
G47C U133G	-1.54
G47A G71U	-0.472
G47A G71A	-2.02
G47A C53U A95G	-3.19
G47A C101A	-1.93
G47A C101U	-1.23
G47A C49A G60C G93A G113C G127U	-6.14
G47A C104U	-1.4
G47A C56U A105U	-2.73
G47A U55G C85U	-1.22
G47A A90G A103C G120C	-4.22
G47A A50U C53A U78G	-2.33
G47A G48A C53G G69U U132A	-0.097
G47A C62U G113U	-4.52
G47C A90G G117C	-4.53

Variant	polymerase ribozyme fitness (log ratio)
G47C U81G G93A C101U	-5.71
G47A G128A	-2.43
G47A U92C G127A	-5.01
G47C G63U	-3.66
G47A G61C U81C C86A U129C	-4.11
G47A G77U	-0.132
G47A C115A	-1.2
G47A C72A C82G C88A	-2.25
G47C U112A	-0.857
G47A G113U C114A A121G	-1.76
G47A C64U C98U	-2.79
G47A G48A	-1.62
G47A G48U	-1.13
G47C C72U A90G C123U	-1.64
G47A G57C A121U G135U	1.05
G47A A111U	-4.17
G47A G69C C73U U106A	-2.08
G47A U81G C82U C86G	-1.44
G47A C70U G77U G93A	-3.29
G47C G52C A68U U109A	-7.13
